Ends that are not written are not given here.
Columns and labels:
CTGF [1] = experiment: Chromogenic DAB oxidation in DGC-labelled cells; format: cell-based; conditions: 40 μM DGC 4 °C overnight + DAB, Image Pro Plus
Description: To observe accurately the expression level of CTGF in cells with the naked eye, we optimized the conditions for labeling U87MG, SH-SY5Y, and CTX TNA2 cells stained with DGC. According to the study, the optimal incubation concentration of DGC (40 μM) was used to determine the optimal culture conditions using the DAB Horseradish Peroxidase Color Development Kit. After the cells were co-stained by DGC at 4 °C overnight, a DAB chromogenic agent was added to the cells. Since DGC can label CTGF proteins on the cells, when DAB chromogenic is added, DGC on the cells can catalyze DAB to produce an insoluble brown precipitate to attach to the cells.

CTGF [2] = biological target: T1, CTGF (Mus musculus, UniProt P29268); experiment: Ex vivo NIR-II imaging of perfused brains after DGC injection; format: in vivo, APP/PS1 mice; conditions: 20 mg/kg i.v., saline perfusion, relative to 1 month
T1 construct: brain sections of the age-matched wild-type C57BL/6J mice were used as controls; from tissue; host or cells: brain of APP/PS1 transgenic and wild-type C57BL/6J mice (sections, living animal, perfused isolated brain)
T1 sequence (P29268 26-348): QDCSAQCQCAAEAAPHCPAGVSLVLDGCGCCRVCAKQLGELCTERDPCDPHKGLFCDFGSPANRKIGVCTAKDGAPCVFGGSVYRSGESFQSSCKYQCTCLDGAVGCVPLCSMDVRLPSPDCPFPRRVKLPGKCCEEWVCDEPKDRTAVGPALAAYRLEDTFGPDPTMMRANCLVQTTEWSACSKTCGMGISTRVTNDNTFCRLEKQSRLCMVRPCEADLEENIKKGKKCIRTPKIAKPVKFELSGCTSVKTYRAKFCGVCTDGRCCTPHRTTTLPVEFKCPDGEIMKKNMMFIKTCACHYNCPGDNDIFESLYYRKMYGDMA
Description: (§1) Mice were then perfused intracardially with saline and 4% PFA, and major organs (including the brain, heart, liver, spleen, lung, and kidney were isolated. The dissociated brains were performed NIR-II imaging ex vivo using the same method as in vivo imaging (n = 3). All isolated organs were also imaged by the NIR-II imaging system (λ ex = 808 nm, 1000 nm longpass (LP) filter (Edmund Optics)). And then, the brains were kept in 4% PFA overnight and embedded with paraffin. Sections with 5-μm thickness were cut and analyzed by immunostaining with antibodies to CTGF (dilution 1: 50, Abcam, Cat#ab6992), GFAP (dilution 1:100, Proteintech, Cat#16825-1-AP), CD31 (dilution 1:200, Beyotime, Cat#AF6408), Neun (dilution 1:300, abcam, Cat# ab177487), and Iba 1 (dilution 1:50, Beyotime, Cat# AF7143), respectively.

[3] = Biodistribution of DGC in organs by ex vivo NIR-II imaging; set-up: species or system APP/PS1 and wild-type mice; conditions: ex vivo NIR-II observation of major organs
Description: as §1

[4] = Effect of DGC on hematology of mice; format: in vivo, C57BL/6J mice; conditions: for Mean hemoglobin content of red blood cells (MCH): in pg (unit assumed)
Description: In order to clarify the NIR-II signal in AD brains when in vivo imaging is arisen from the DGC probe that bound to CTGF, we selected 3-month-old APP/PS1 mice representing early-stage AD and the age-matched WT mice as control to performed ex vivo multimodal analysis of the brain sections. […] To exclude the influence of vascular retention, we emptied the cerebral vessels by cardiac perfusion and performed ex vivo imaging of the brains. […] For brain sections made from AD mice after tail vein injection of DGC, the red fluorescence observation and LA-ICP-TOF-MS of DGC, as well as a POD-like catalysis test were performed. […] In Fig. 6c, the colocalization of DGC (red fluorescence) and CTGF (green fluorescence) on the ex vivo brain sections confirmed the specificity of DGC targeting CTGF in vivo. To further identify the cellular target of DGC in the brain of APP/PS1 mice, we carried out immunofluorescence staining on the ex vivo brain sections after tail vein injection of DGC where cell-specific fluorescent antibodies for microglia (Iba 1), neurons (NeuN), vascular endothelial cell (CD31) and reactive astrocytes (GFAP) were applied. In Fig. 6d, […] co-localizes with GFAP-positive active astrocytes and CD31-positive microvessels, but not with neurons or microglia. […] The biosafety of DGC in C57BL/6J mice under the NIR-II imaging condition was evaluated by blood tests (blood cells and biochemical analysis) and organ pathological analysis (H&E staining).

[5] = DGC group, mean of 3 mice, in 10^9/L (unit assumed)
[6] = DGC group, mean of 3 mice, in % (unit assumed)
[7] = DGC group, mean of 3 mice, in fL (unit assumed)
[8] = DGC group, mice 1, in fL (unit assumed)
[9] = DGC group, mice 2, in fL (unit assumed)
[10] = DGC group, mice 3, in fL (unit assumed)

ex vivo NIR-II fluorescence (FL) intensity in brain (CTGF [2]; 1-month-old APP/PS1 mice, brain 1): 1 | ex vivo NIR-II fluorescence (FL) intensity in brain (CTGF [2]; 1-month-old APP/PS1 mice, brain 2): 1 | ex vivo NIR-II fluorescence (FL) intensity in brain (CTGF [2]; 1-month-old APP/PS1 mice, brain 3): 1 | ex vivo NIR-II fluorescence (FL) intensity in brain (CTGF [2]; 2-month-old APP/PS1 mice, brain 1): 1.473 | ex vivo NIR-II fluorescence (FL) intensity in brain (CTGF [2]; 2-month-old APP/PS1 mice, brain 2): 1.458 | ex vivo NIR-II fluorescence (FL) intensity in brain (CTGF [2]; 2-month-old APP/PS1 mice, brain 3): 1.501 | ex vivo NIR-II fluorescence (FL) intensity in brain (CTGF [2]; 3-month-old APP/PS1 mice, brain 1): 1.722 | ex vivo NIR-II fluorescence (FL) intensity in brain (CTGF [2]; 3-month-old APP/PS1 mice, brain 2): 1.714 | ex vivo NIR-II fluorescence (FL) intensity in brain (CTGF [2]; 3-month-old APP/PS1 mice, brain 3): 1.766 | ex vivo NIR-II fluorescence (FL) intensity in brain (CTGF [2]; 6-month-old APP/PS1 mice, brain 1): 2.766 | ex vivo NIR-II fluorescence (FL) intensity in brain (CTGF [2]; 6-month-old APP/PS1 mice, brain 2): 2.744 | ex vivo NIR-II fluorescence (FL) intensity in brain (CTGF [2]; 6-month-old APP/PS1 mice, brain 3): 2.849 | ex vivo NIR-II fluorescence (FL) intensity in brain (CTGF [2]; 9-month-old APP/PS1 mice, brain 1): 3.728 | ex vivo NIR-II fluorescence (FL) intensity in brain (CTGF [2]; 9-month-old APP/PS1 mice, brain 2): 3.62 | ex vivo NIR-II fluorescence (FL) intensity in brain (CTGF [2]; 9-month-old APP/PS1 mice, brain 3): 3.948
Substance: DGC: CTGF-targeting peptide-coated gold nanocluster: one Au26 gold nanocluster coated by eight DAG cyclic peptides, NIR-II and red fluorescence (CDAGRKQKC; also: cyclic peptide, ring not given here, eight peptides on one Au26 nanocluster via Cys Au-S bonds)
DAB chromogenic imaging intensity (CTGF [1]; CTX TNA2 cells, replicate 1): 0.0128 | DAB chromogenic imaging intensity (CTGF [1]; CTX TNA2 cells, replicate 2): 0.01748 | DAB chromogenic imaging intensity (CTGF [1]; CTX TNA2 cells, replicate 3): 0.0191 | DAB chromogenic imaging intensity (CTGF [1]; SH-SY5Y cells, replicate 1): 0.04369 | DAB chromogenic imaging intensity (CTGF [1]; SH-SY5Y cells, replicate 2): 0.03714 | DAB chromogenic imaging intensity (CTGF [1]; SH-SY5Y cells, replicate 3): 0.0465 | DAB chromogenic imaging intensity (CTGF [1]; U87MG cells, replicate 1): 0.1444 | DAB chromogenic imaging intensity (CTGF [1]; U87MG cells, replicate 2): 0.1042 | DAB chromogenic imaging intensity (CTGF [1]; U87MG cells, replicate 3): 0.1075 | metabolism and excretion route [3]: mainly metabolized by the liver and excreted through the kidney and liver | Basophil granulocyte count (Bas#) ([4]; C57BL/6J mice, 20 mg/kg DGC, n = 3, normal range 0.00 - 0.12): 0.02 ± 0.01 109/L | Eosinophil granulocyte count (Eos#) ([4]; C57BL/6J mice, 20 mg/kg DGC, n = 3, normal range 0.00 - 0.51): 0.04 ± 0.02 109/L | Percentage of Basophil granulocyte (Bas%) ([4]; C57BL/6J mice, 20 mg/kg DGC, n = 3, normal range 0.0 - 1.5): 0.27 ± 0.06% | Percentage of eosinophil granulocyte (Eos%) ([4]; C57BL/6J mice, 20 mg/kg DGC, n = 3, normal range 0.0 - 7.5): 0.47 ± 0.23% | Monocytes count (Mon#) ([4]; C57BL/6J mice, 20 mg/kg DGC, n = 3, normal range 0.04 - 1.40): 0.25 ± 0.1 109/L | Percentage of monocytes (Mon%) ([4]; C57BL/6J mice, 20 mg/kg DGC, n = 3, normal range 0.9 - 18.0): 3.07 ± 0.84% | Percentage of neutrophil (Neu%) ([4]; C57BL/6J mice, 20 mg/kg DGC, n = 3, normal range 6.5 - 50.0): 13.2 ± 1.31% | Percentage of lymphocyte (Lym%) ([4]; C57BL/6J mice, 20 mg/kg DGC, n = 3, normal range 40.0 - 92.0): 83 ± 2.08% | Mean concentration of red blood cell hemoglobin (MCHC) ([4]; DGC group, mean of 3 mice): 315.67 ± 5.69 | Width of platelet distribution (PDW) ([4]; DGC group, mean of 3 mice): 15.23 ± 0.25 | Basophil granulocyte count (Bas#) [4, 5]: 0.02 ± 0.01 | Eosinophil granulocyte count (Eos#) [4, 5]: 0.04 ± 0.02 | Lymphocyte count (Lym#) [4, 5]: 6.65 ± 0.78 | Monocytes count (Mon#) [4, 5]: 0.25 ± 0.1 | Neutrophil count (Neu#) [4, 5]: 1.07 ± 0.24 | Platelet count (PLT) [4, 5]: 1228.67 ± 179.01 | White blood cell count (WBC) [4, 5]: 8.03 ± 1.12 | Red blood cell count (RBC) ([4]; DGC group, mean of 3 mice, in 10^12/L (unit assumed)): 10.16 ± 0.42 | Coefficient of variation of red blood cell distribution width (RDW-CV) [4, 6]: 13.13 ± 1 | Hematocrit (HCT) [4, 6]: 51.2 ± 1.93 | Mean corpuscular volume (MCV) [4, 7]: 50.4 ± 0.17 | Mean platelet volume (MPV) [4, 7]: 5.53 ± 0.15 | Standard deviation of red blood cell distribution width (RDW-SD) [4, 7]: 27.8 ± 2.1 | Hemoglobin (HGB) ([4]; DGC group, mean of 3 mice, in g/L (unit assumed)): 161.67 ± 8.02 | Mean hemoglobin content of red blood cells (MCH) ([4]; DGC group, mean of 3 mice): 15.93 ± 0.25 | Mean concentration of red blood cell hemoglobin (MCHC) ([4]; DGC group, mice 1): 311 | Mean corpuscular volume (MCV) [4, 8]: 50.5 | Mean platelet volume (MPV) [4, 8]: 5.7 | Mean hemoglobin content of red blood cells (MCH) ([4]; DGC group, mice 1): 15.7 | Mean concentration of red blood cell hemoglobin (MCHC) ([4]; DGC group, mice 2): 322 | Mean corpuscular volume (MCV) [4, 9]: 50.2 | Mean platelet volume (MPV) [4, 9]: 5.4 | Mean hemoglobin content of red blood cells (MCH) ([4]; DGC group, mice 2): 16.2 | Mean concentration of red blood cell hemoglobin (MCHC) ([4]; DGC group, mice 3): 314 | Mean corpuscular volume (MCV) [4, 10]: 50.5 | Mean platelet volume (MPV) [4, 10]: 5.5 | Mean hemoglobin content of red blood cells (MCH) ([4]; DGC group, mice 3): 15.9

From paper PMC11169542, “A probe for NIR-II imaging and multimodal analysis of early Alzheimer’s disease by targeting CTGF” (Nature Communications, 2024)
